Data published in patent US20240132603A1 (HARBOUR BIOMED US, published 2024).
Read-outs that look alike come from different tables or passages of the source. One block for each binder: values may come before it.

Assays:
human CCR8 [1] = molecular target: T1, human CCR8 (human, UniProt P51685 1-355); experiment: FACS on CHO-K1 cells overexpressing human CCR8
T1 construct: whole, on cells; construct used for the overexpressing cell lines is not described; also called hCCR8
Method: (§1) Cells overexpressing human CCR8 were digested with pancreatin, counted and resuspended to a cell density of 1E6 cells/mL. The cell suspension was added to a 96-well V-bottom plate at 100 μL/well and centrifuged at 300 g for 5 min, and the supernatant was discarded. The anti-CCR8 antibodies provided herein was used as a primary antibody and diluted in a 5-fold gradient with an FACS buffer (DPBS containing 2% FBS) from 200 nM. The diluted primary antibody was added at 100 μL/well to resuspend the cells, and the mixture was incubated at 4° C. for 1 h. The plate was washed twice with DPBS and centrifuged at 300×g for 5 min, and the supernatant was discarded. The secondary antibody diluted in a 1:1000 ratio with an FACS buffer was added at 100 μL/well to suspend the cells, and the mixture was incubated at 4° C. for 40 min. The plate was washed twice with DPBS and centrifuged at 300×g for 5 min, and the supernatant was discarded. DPBS was added at 200 μL/well to suspend the cells, and the mixture was loaded on an FACS machine for analysis.

human CCR8 [2] = molecular target: T1, human CCR8; experiment: FACS, CHO-K1-hCCR8 cells
Procedure, shortened: (§2)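 Binding was measured on intact cells by two-step staining at 4 °C. Test antibodies were applied from 200 nM in 5-fold steps for 1 h, and a secondary reagent at 1:1000 for 40 min, before analysis on a FACS instrument.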

cynomolgus monkey CCR8 [3] = molecular target: T2, cynomolgus monkey CCR8 (cynomolgus monkey, UniProt G7NYJ2 1-355); experiment: FACS on CHO-K1 cells overexpressing cynomolgus monkey CCR8
T2 construct: whole, on cells; also called CynoCCR8
Method: as §1, with “cynomolgus monkey CCR8, CHO-K1-CynoCCR8,” for “human CCR8”

human CCR8 [4] = molecular target: T1, human CCR8; experiment: FACS, CHO-K1-hCCR8 cells; remark: listed apart in the source
Procedure, shortened: as §2

cynomolgus monkey CCR8 [5] = molecular target: T2, cynomolgus monkey CCR8; experiment: FACS, CHO-K1-CynoCCR8 cells
Method: as §1, with “cynomolgus monkey CCR8, CHO-K1-CynoCCR8,” for “human CCR8”

human CCR8 [6] = molecular target: T1, human CCR8; experiment: cell-based or functional assay
human CCR8 [7] = molecular target: T1, human CCR8; experiment: FACS, Baf3-hCCR8 cells
Procedure, shortened: as §2

human CCR8 [8] = molecular target: T1, human CCR8; experiment: cell-based or functional assay; remark: listed apart in the source
human CCR8 [9] = molecular target: T1, human CCR8; experiment: FACS, HEK293-hCCR8 cells
Procedure, shortened: as §2

human CCR8 [10] = molecular target: T1, human CCR8; experiment: FACS, HEK293-hCCR8 cells; remark: listed apart in the source
Method: as §1

cynomolgus monkey CCR8 [11] = molecular target: T2, cynomolgus monkey CCR8; experiment: FACS, CHO-K1-CynoCCR8 cells; remark: listed apart in the source
Procedure, shortened: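 Anti-CCR8 antibodies titrated in 5-fold steps from 200 nM onto 1E6 cells/mL CHO-K1-CynoCCR8 in DPBS/2% FBS, 1 h at 4 °C. Bound antibody detected with 1:1000 secondary antibody, 40 min at 4 °C, then flow cytometry.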

cynomolgus monkey CCR8 [12] = molecular target: T2, cynomolgus monkey CCR8; experiment: FACS, CHO-K1-CynoCCR8 cells; remark: listed apart in the source
Method: as §1, with “cynomolgus monkey CCR8, CHO-K1-CynoCCR8,” for “human CCR8”

human CCR8 [13] = molecular target: T1, human CCR8; experiment: FACS competition on HEK293-hCCR8 cells against a biotin-labelled anti-CCR8 antibody at its EC80; the labelled antibody of this panel is not named on the sheet
Method: (§3) The antibody was conjugated with Sulfo-NHS-LC-Biotin at a molar ratio of 5:1 (1 mol antibody was added to 5 mol Sulfo-NHS-LC-Biotin) with reference to the product instructions (ThermoFisher, Cat No. A39257) and incubated on ice for 2 h. The coupled antibody was purified with a Zeba desalting column (ThermoFisher, Cat No. 89882). Cells overexpressing human CCR8, HEK293-hCCR8, were added to a V-bottom 96-well plate at a density of 1E5 cells/well and centrifuged at 300 g for 5 min, and the supernatant was discarded. The competitive antibody was serially diluted in a ratio of 1:10 from 200 nM to obtain 8 concentration points. The Biotin-antibody and the competition antibody were mixed in a 1:1 ratio on an HEK293 cell line overexpressing human CCR8 by the binding EC₈₀ concentration. The cells in the 96-well plate were resuspended and incubated at 4° C. for 1 h. The plate was washed twice with DPBS at 200 μL/well. The secondary antibody diluted in a 1:1000 ratio was added at 100 μL/well, and the mixture was incubated at 4° C. for 40 min. The plate was washed twice with DPBS at 200 μL/well. Finally, DPBS was […] at 200 μL/well to suspend the cells, and the mixture was loaded on an FACS machine for analysis.

human CCR8 [14] = molecular target: T1, human CCR8; experiment: as above; remark: listed apart in the source
Method: as §3

human CCR8 [15] = molecular target: T1, human CCR8; experiment: as above; remark: listed apart in the source
Method: as §3

human CCR8 [16] = molecular target: T1, human CCR8; experiment: as above; remark: listed apart in the source
Method: as §3

human CCR8 [17] = molecular target: T1, human CCR8; experiment: as above; remark: listed apart in the source
Method: as §3

T1 sequence (P51685 whole entry): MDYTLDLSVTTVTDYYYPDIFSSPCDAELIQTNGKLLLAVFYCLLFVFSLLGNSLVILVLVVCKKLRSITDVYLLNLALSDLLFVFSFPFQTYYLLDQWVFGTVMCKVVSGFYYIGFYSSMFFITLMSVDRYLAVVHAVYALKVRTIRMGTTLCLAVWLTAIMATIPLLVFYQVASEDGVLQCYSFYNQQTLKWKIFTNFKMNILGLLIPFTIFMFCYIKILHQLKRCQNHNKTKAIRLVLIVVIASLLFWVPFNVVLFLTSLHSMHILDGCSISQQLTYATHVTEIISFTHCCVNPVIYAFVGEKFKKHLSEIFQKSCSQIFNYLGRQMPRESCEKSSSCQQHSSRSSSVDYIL
T2 sequence (G7NYJ2 entry or part of it): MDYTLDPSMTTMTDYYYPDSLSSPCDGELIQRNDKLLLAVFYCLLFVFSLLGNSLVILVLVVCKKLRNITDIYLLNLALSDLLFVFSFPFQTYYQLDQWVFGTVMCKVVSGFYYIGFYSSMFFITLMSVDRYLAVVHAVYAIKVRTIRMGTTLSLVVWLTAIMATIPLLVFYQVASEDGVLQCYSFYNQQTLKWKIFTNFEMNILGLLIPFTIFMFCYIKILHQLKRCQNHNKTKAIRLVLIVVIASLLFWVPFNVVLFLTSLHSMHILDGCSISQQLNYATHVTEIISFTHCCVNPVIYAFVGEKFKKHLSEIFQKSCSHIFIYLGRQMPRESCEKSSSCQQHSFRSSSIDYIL

B2: PR004342 (antibody, human IgG1, kappa, V domains shown)
VH: EVQLVESGGGLVQPKGSLKLSCAASGFTFNTYAMNWVRQAPGKGLEWVARIRSKSNNYATYYADSVKDRFTISRDDSQSMLYLQMNNLKTEDTAMYYCVRGKENGNYYAMDFWGQGTSVTVSA
VL: DIVMTQSPLSLPVTPGEPASISCRSSKSLLHSNGNTYLYWFLQKPGQSPQLLIYRMSNLASGVPDRFSGSGSGTDFTLKISRVEAEDVGVYYCMQHLEYPFTFGQGTKLEIKR
EC50 (human CCR8 [2]): 0.8 nM | binding result (cynomolgus monkey CCR8 [3]): no binding (tested: 200 nM)

B3: PR004346 (antibody, human IgG1, kappa, V domains shown)
VH: EVQLVESGGGLVQPKGSLKLSCAASGFTFNTYAMNWVRQAPGKGLEWVARIRSKSNNYATYYADSVKDRFTISRDDSQSMLYLQMNNLKTEDTAMYYCVRGKENGNYYAMDFWGQGTSVTVSA
VL: DIVMTQSPLSLPVTLGQPASISCRSSKSLLHSNGNTYLYWFQQRPGQSPRLLIYRMSNLASGVPDRFSGSGSGTDFTLKISRVEAEDVGVYYCMQHLEYPFTFGQGTKLEIKR
EC50 (human CCR8 [2]): 0.91 nM | binding result (cynomolgus monkey CCR8 [3]): no binding (tested: 200 nM)

B5: PR004125 (antibody, human IgG1, kappa)
heavy: not shown
light: DIVMTQAAPSVPVTPGESVSISCRSSKSLLHSNGNTYLYWFLQRPGQSPQLLIYRMSNLASGVPDRFSGSGSGTAFTLRISRVEAEDVGVYYCMQHLEYPLTFGAGTKLEMKRTVAAPSVFIFPPSDEQLKSGTASVVCLLNNFYPREAKVQWKVDNALQSGNSQESVTEQDSKDSTYSLSSTLTLSKADYEKHKVYACEVTHQGLSSPVTKSFNRGEC
notes: chimeric, human IgG1 constant region
EC50, ADCC reporter gene activity (Jurkat/FcγR III-NFAT effector cells) (human CCR8 [6]): 0.59 nM | EC50 (human CCR8 [7]): 0.21 nM | Bottom %, blocking of CCL1-stimulated calcium flux (human CCR8 [8]): 23% | IC50(nM), blocking of CCL1-stimulated calcium flux (human CCR8 [8]): 1.16 nM | EC50 (human CCR8 [4]): 0.5 nM | EC50 (human CCR8 [9]): 0.72 nM | EC50 (human CCR8 [10]): 0.66 nM | EC50 (cynomolgus monkey CCR8 [11]): 1.16 nM | EC50 (cynomolgus monkey CCR8 [12]): 2.44 nM | IC50 (read off the curve) (human CCR8 [13]): ~3 nM | IC50 (read off the curve) (human CCR8 [14]): ~2 nM | IC50 (read off the curve) (human CCR8 [15]): ~2 nM | IC50 (read off the curve) (human CCR8 [16]): ~2 nM | IC50 (read off the curve) (human CCR8 [17]): 1 to 2 nM

The remaining lines, values ahead:

binding result (human CCR8 [1]): binds
B1: PR004970 (antibody, human IgG1, kappa, V domains shown)
VH: EVQLVESGGGLVQPGGSLRLSCAASGFTFSSYWMSWVPQAPGKGLEWVANIKQDGSAKFYVDSVKGRFTISRDNAKNSLYLQMNSLRAEDTAVYYCARSWGFAYWGQGTLVTVSS
VL: DIQMTQSPSSLSASVGDRVTITCRASQGISNYLAWYQQKPGKVPKLLIYAASTLQSGVPSRFSGSGSGTDFTLTISSLQPEDVATYYCQKYNSAPWTFGQGTKVEIKR
notes: fully human, from single cell clone screening

EC50 (human CCR8 [4]): 0.62 nM | EC50 (cynomolgus monkey CCR8 [5]): 1.88 nM | EC50 (read off the curve) (cynomolgus monkey CCR8 [3]): ~2 nM
B4: PR004668 (antibody, human IgG1, kappa)
heavy: not shown
light: DIVMTQSPLSLPVTPGEPASISCRSSKSLLHSNGKIYLYWFLQKPGQSPQLLIYRMSNLASGVPDRFSGSGSGTDFTLKISRVEAEDVGVYYCMQHLEYPLTFGQGTKLEIKRTVAAPSVFIFPPSDEQLKSGTASVVCLLNNFYPREAKVQWKVDNALQSGNSQESVTEQDSKDSTYSLSSTLTLSKADYEKHKVYACEVTHQGLSSPVTKSFNRGEC
notes: humanized; same VH/VL as PR004520, other heavy chain entry

EC50 (read off the curve) (human CCR8 [1]): ~2 nM
B6: PR005172 (antibody, human IgG1, kappa, V domains shown)
VH: EVQLVESGGGLVQPKGSLKLSCAASGFTFNTYAMNWVRQAPGKGLEWVARIRSKSNNYATYYADSVKDRFTISRDDSQSMLYLQMNNLKTEDTAMYYCVRGKENGNYYAMDFWGQGTSVTVSA
VL: DIVMTQAAPSVPVTPGESVSISCRSSKSLLHSNGKIYLYWFLQRPGQSPQLLIYRMSNLASGVPDRFSGSGSGTAFTLRISRVEAEDVGVYYCMQHLEYPVTFGAGTKLEIKR
notes: heavy chain entry as PR004128

EC50 (read off the curve) (human CCR8 [1]): ~1 nM
B7: PR005170 (antibody, human IgG1, kappa, V domains shown)
VH: EVQLVESGGGLVQPKGSLKLSCAASGFTFNTYAMNWVRQAPGKGLEWVARIRSKSNNYATYYADSVKDRFTISRDDSQSMLYLQMNNLKTEDTAMYYCVRGKENGNYYAMDFWGQGTSVTVSA
VL: DIVMTQAAPSVPVTPGESVSISCRSSKSLLHSNGKIYLYWFLQRPGQSPQLLIYRMSNLASGVPDRFSGSGSGTAFTLRISRVEAEDVGVYYCMQHLEYPITFGAGTKLEIKR
notes: heavy chain entry as PR004128

EC50 (read off the curve) (human CCR8 [1]): ~1 nM
B8: PR005171 (antibody, human IgG1, kappa, V domains shown)
VH: EVQLVESGGGLVQPKGSLKLSCAASGFTFNTYAMNWVRQAPGKGLEWVARIRSKSNNYATYYADSVKDRFTISRDDSQSMLYLQMNNLKTEDTAMYYCVRGKENGNYYAMDFWGQGTSVTVSA
VL: DIVMTQAAPSVPVTPGESVSISCRSSKSLLHSNGKIYLYWFLQRPGQSPQLLIYRMSNLASGVPDRFSGSGSGTAFTLRISRVEAEDVGVYYCMQHLEYPMTFGAGTKLEIKR
notes: heavy chain entry as PR004128
